PMC3640471, “The structures of Arabidopsis Deg5 and Deg8 reveal new insights into HtrA proteases” (Acta Crystallographica Section D: Biological Crystallography, 2013)
Where a chain is given by its changes, count along the chain named. Names and notes keep the numbering of the source.

How the values were obtained:
[1] = target: Deg8 (sample of the analytical SEC) (Arabidopsis thaliana) (UniProt Q9LU10); experiment: SEC; analytical SEC of Deg8 at pH 8.0; Superdex 200 10/300 GL, 10 µM protein, sodium phosphate, 150 mM NaCl
[2] = target: Deg8 (sample of the analytical SEC) (Arabidopsis thaliana) (UniProt Q9LU10); experiment: SEC; analytical SEC of Deg8 at pH 6.0; Superdex 200 10/300 GL, 10 µM protein, sodium phosphate, 150 mM NaCl
[3] = target: the molecule itself; experiment: crystal structure; Deg5 (S266A), space group C2, three molecules per asymmetric unit, 2.6 Å
[4] = target: the molecule itself; experiment: SEC; analytical SEC, Superdex 200 10/300 GL, 10 µM protein, sodium phosphate pH 6.0 or 8.0, 150 mM NaCl
[5] = target: the molecule itself; experiment: crystal structure; Deg8 (S292A), space group C2, three molecules per asymmetric unit, 2.0 Å; hexamer in the crystal

**Q.** Which results are given for “Deg8 (sample of the analytical SEC) (from UniProt Q9LU10 91-448) (enzyme)”?
**A.** stoichiometry N [1]: 6; stoichiometry N [2]: 3

B1: Arabidopsis thaliana Deg5 (S266A) (enzyme)
chain: LEQFKEKEEELEEEEERNVNLFQKTSPSVVYIEAIELPKTSSGDILTDEENGKIEGTGSGFVWDKLGHIVTNYHVIAKLATDQFGLQRCKVSLVDAKGTRFSKEGKIVGLDPDNDLAVLKIETEGRELNPVVLGTSNDLRVGQSCFAIGNPYGYENTLTIGVVSGLGREIPSPNGKSISEAIQTDADINSGNAGGPLLDSYGHTIGVNTATFTRKGSGMSSGVNFAIPIDTVVRTVPYLIVYGTAYRDR
notes: HtrA protease Deg5 of Arabidopsis thaliana, catalytic Ser266 mutated to alanine; PDB 4ic5 holds the crystallised chain; source: purified; expression and purification described previously (Fan et al., 2012)
**Q.** For B1, which “stoichiometry N” value [3] is on record?
**A.** 3

B2: Deg5 (E87A/D260A/S266A) (enzyme, Arabidopsis thaliana)
chain: B1 chain with E14A, D187A
notes: HtrA protease Deg5 of Arabidopsis thaliana with E87A, D260A and S266A; parent is Deg5 (S266A), m1; also called Deg5 (S266A/E87A/D260A) triple mutant; mutant (E87A/D260A/S266A)
**Q.** How did the “stoichiometry N” value [4] turn out when B2 was run?
**A.** 3

B3: Arabidopsis thaliana Deg8 (S292A) (enzyme, UniProt Q9LU10 91-448, looked up)
chain: LGDPSVATVEDVSPTVFPAGPLFPTEGRIVQLFEKNTYSVVNIFDVTLRPQLKMTGVVEIPEGNGSGVVWDGQGYIVTNYHVIGNALSRNPSPGDVVGRVNILASDGVQKNFEGKLVGADRAKDLAVLKVDAPETLLKPIKVGQSNSLKVGQQCLAIGNPFGFDHTLTVGVISGLNRDIFSQTGVTIGGGIQTDAAINPGNAGGPLLDSKGNLIGINTAIFTQTGTSAGVGFAIPSSTVLKIVPQLIQFSKVLRAGINIELAPDPVANQLNVRNGALVLQVPGKSLAEKAGLHPTSRGFAGNIVLGDIIVAVDDKPVKNKAELMKILDEYSVGDKVTLKIKRGNEDLELKISLEEKSS
notes: HtrA protease Deg8 of Arabidopsis thaliana, 358 residues Leu91-Ser448, catalytic Ser292 mutated to alanine; residues 104-448 defined in the density; source: expression and purification described previously (Shan et al., 2013)
**Q.** For B3, which “stoichiometry N” value [5] is on record?
**A.** 6
